Residue numbers refer to the chain shown, from its start.
Target: DS-Cav1 (RSV F-protein, pre-form, in-house) (respiratory syncytial virus (RSV), UniProt P03420 26-513)
Assay: ELISA, coated DS-Cav1, IgG titrated

Chain of DS-Cav1 (RSV F-protein, pre-form, in-house) (P03420 26-524): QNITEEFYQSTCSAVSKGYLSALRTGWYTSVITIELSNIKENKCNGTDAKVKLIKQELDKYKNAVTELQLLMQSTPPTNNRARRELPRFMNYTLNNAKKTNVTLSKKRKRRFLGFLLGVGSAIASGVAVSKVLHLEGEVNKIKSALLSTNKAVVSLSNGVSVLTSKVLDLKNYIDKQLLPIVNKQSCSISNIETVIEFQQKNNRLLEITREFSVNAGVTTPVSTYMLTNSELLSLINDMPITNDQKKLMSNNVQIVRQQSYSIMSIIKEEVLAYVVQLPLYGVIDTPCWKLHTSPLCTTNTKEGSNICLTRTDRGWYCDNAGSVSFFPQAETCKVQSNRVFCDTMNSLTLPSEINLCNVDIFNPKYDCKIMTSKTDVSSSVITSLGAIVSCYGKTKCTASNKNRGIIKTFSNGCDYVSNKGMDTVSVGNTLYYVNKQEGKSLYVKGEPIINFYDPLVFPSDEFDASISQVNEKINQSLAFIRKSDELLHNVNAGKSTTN

B1: #6m (antibody, V domains shown)
VH: EVQLVESGGGLVKPGGSLRLSCAGSGFTFSSYTMHWVRQAPGKGLEWVSSITGGSSYVDYSASVKGRFTISRDNAQSSLYLQMNSLRAEDTAVYYCARDDYGSGSYSNWFDPWGQGTLVTVSS
VL: QSVLTQPPSASGTPGQRVTISCTGSSSNIGAGYDVHWYQQLPGAAPRLLMFGNSNRPSGVPDRFSGSKSGTSASLAITGLQADDEADYYCQSYDRSLSHVFGTGTKVTVLG
notes: Germline-edited (m) form of 2E7, light chain edited; IgG; also called 2E7 (modified)
Binder B1 has a Kd of roughly 2.34 nM.

B2: 2H2 (antibody, V domains shown)
VH: B1 VH with E1Q, E6Q, V12I, K13Q
VL: B1 VL with A10V, T13A, A44T, R47K, M50I, G52A, S54T, T71A
notes: IgG made in Expi293; also called #7
Binder B2 has a Kd of roughly 0.44 nM.

B3: 12A1 (antibody, V domains shown)
VH: B1 VH with V12I, K13Q
VL: B1 VL with A10V, T13A, N28D, A44T, R47K, M50I, G52A, S54T, T71A
notes: IgG made in Expi293; also called #8
B3 gave a Kd of roughly 1.66 nM.

B4: 5E9 (antibody, V domains shown)
VH: QVQLVQSGPEVKKPGSSVKVSCKASGYTFGHYGISWVRQAPGQGLEWMAWISAYNGNTDSIQKVQGRVTMTTDTSTNTAYLELRSLRSDDTAVYYCVRDVPATGGAATADYWGQGTTVTVSS
VL: DVVMTQSPLSLPVTLGQPASISCRSSQSLVFSDGNTYLSWFQQRPGQSPRRLIYKVSNRDSGVPDRFSASGSGTDFTLKISRVEADDVGVYYCMQVTHWPRTFGQGTRLEIKR
notes: IgG made in Expi293; also called #60; 60
In the case of B4, the Kd is reported as roughly 1.31 nM.

B5: 5C7 (antibody, V domains shown)
VH: B4 VH with V5Q, P9S, S16A, T117L
VL: B4 VL with T14P, F31H, N58D, A69G, D86E
notes: IgG made in Expi293; also called #62; 62
For B5, the Kd was roughly 0.84 nM.

B6: 8A11 (antibody, V domains shown)
VH: B4 VH with P9S, S16A, T117L
VL: B4 VL with R24K, Q27R, F31H, R108K
notes: IgG made in Expi293; also called #63; 63
B6 was tested, and the Kd was roughly 0.69 nM.

B7: #62m (antibody, V domains shown)
VH: B4 VH with P9A, S16A, T117L
VL: B4 VL with T14P, F31H, N58D, A69G, D86E
notes: Germline-edited (m) form of 5C7, heavy chain edited; IgG; also called 5C7 (modified)
B7 gave a Kd of roughly 1.27 nM.

B8: 5C9 (antibody, V domains shown)
VH: B4 VH with P9S, S16A
VL: B4 VL with R108K
notes: IgG made in Expi293; also called #61; 61
With B8 the Kd was roughly 0.8 nM.

B9: 9H4 (antibody, V domains shown)
VH: QVQLVQSGGGLVQPGGSLRISCTASGFTFRNYEMNWVRQAPGKGLEWVAYISSSGSSRYYADSVKGRFTISRDNAKNSLFLQMNSLRAEDMAVYYCARTDDGSSWFVSTSSFYGMDVWGQGTTVTVSS
VL: EIVLTQSPGIQSLSPGETATLSCRASESISSSYFAWYQQKPGQAPRLLIYGASSRASGIPDRFSGSGSGTDFTLTISRLEPEDFAVYYCQQYGSSPPITFGQGTRLEIKR
notes: IgG made in Expi293; also called #52; 52
Work on B9 yielded a Kd of roughly 0.89 nM.

B10: #52m (antibody, V domains shown)
VH: B9 VH with Q6E
VL: B9 VL
notes: Germline-edited (m) form of 9H4, heavy chain edited; IgG; also called 9H4 (modified)
B10 was tested, and the Kd was roughly 0.89 nM.

B11: D25 (antibody, V domains shown)
VH: QVQLVQSGAEVKKPGSSVMVSCQASGGPLRNYIINWLRQAPGQGPEWMGGIIPVLGTVHYAPKFQGRVTITADESTDTAYIHLISLRSEDTAMYYCATETALVVSTTYLPHYFDNWGQGTLVTVSS
VL: DIQMTQSPSSLSAAVGDRVTITCQASQDIVNYLNWYQQKPGKAPKLLIYVASNLETGVPSRFSGSGSGTDFSLTISSLQPEDVATYYCQQYDNLPLTFGGGTKVEIK
B11 gave a Kd of roughly 0.73 nM.

Reference: patent US20240182547A1 (MOGAM INSTITUTE FOR BIOMEDICAL RESEARCH, published 2024)
